B1: C. crescentus ParB on a cysteine-less ParB background [C. crescentus] / itself (parent)
chain: MESVVVGEPGMSEGRRGLGRGLSALLGEVDAAPACAPGEQLGGSREAPIEILQRNPDQPRRTFREEDLEDLSNSIREKGVLQPILVRPSPDTAGEYQIVAGERRWRAAQRAGLKTVPIMVRELDDLAVLEIGIIENVQRADLNVLEEALSYKVLMEKFERTQENIAQTIGKSRSHVANTMRLLALPDEVQSYLVSGELTAGHARAIAAAADPVALAKQIIEGGLSVRETEALARKAPNLSAGKSKGGRPPRVKDTDTQALESDLSSVLGLDVSIDHRGSTGTLTITYATLEQLDDLSNRLTRGI

Variants of: B1
Experiment: BMOE crosslinking assay
Details: with itself, 8 µM ParB variant, 0.5 µM 22 bp parS DNA, 5 min preincubation, read off a plot
[1] = 1 µM CTP point (lowest), parent: 33
[2] = 1000 µM CTP point (highest), parent: 80

response [1] [%]	response [2] [%]	Variant
31	80	chain 1 E102A
24	23	chain 1 R104A
32	49	chain 1 R60A
68	80	chain 1 E135A
30	34	chain 1 R103A
28	36	chain 1 R139A
64	79	chain 1 Q58A
28	39	chain 1 S74A
52	64	chain 1 N136A
31	76	chain 1 Q82A
27	62	chain 1 G79S
